Measurements reported in patent publication US11110182B2, “Multifunctional RNA nanoparticles and methods for treating cancer and therapeutic resistant cancer” (University of Cincinnati, priority 2016, dated 2021).

Assay: Biosafety during therapeutic treatment (body weight, organ H&E histopathology)
Type: in vivo, athymic nude mice
Method: FIG. 12A) During therapeutic treatment to orthotopic xenograft mouse models, the body weights of mice were recorded every three days. FIG. 12B) After therapeutic treatment, major organs were excised, fixed in 10% neutral formalin buffer, embedded in paraffin, sectioned and examined for histopathology by H&E staining. Scale bar: 100 μm.
Migration and metastasis assay. The 8-μm-pore-size polycarbonate membrane, which separates the two chambers of a 6.5-mm Transwell (Costar), was coated with or without 1:8 DMEM-diluted Matrigel (Corning). […] Cells at top side of membranes were removed completely, and cells at the bottom side were examined with an Olympus SZX12 microscope and counted. • Mammosphere culture and breast cancer stem cell analyses. […] After treatment with or without 1 μM 4-OHT for 7 days, mammosphere formation was recorded using an Axiovert S100 TV inverted microscope (Zeiss). […] After resuspension with 0.5 mL PBS buffer, CD44^+/CD24^−/low cell population was analyzed by flow cytometry. • Orthotopic xenograft breast tumor mouse model, in vivo imaging and anti-tumor therapy. […] The tumor volume was monitored every 3 days, and tumor size was calculated using the formula: volume=0.5×(width)^2×(length). […]

B1: pRNA-HER2apt-siMED1: 3-WJ pRNA nanoparticle bearing a HER2-targeting RNA aptamer and two different MED1 siRNAs; strands p1 SEQ ID NO: 3, p2 SEQ ID NO: 4 (nucleic acid)
chain 1: GGACAGUGAAAGUGAGUCAAAGGAUCAAUCAUGGCCAAAGAUGUUACUUUGAGAGCCUU
chain 2: GGCUCUCAAAGUAACAUCUAAGGCCAUGUGUAUGUGGGGGGAGGACGAUGCGGUCUGCUGUGCUUGAUAUGCCCCAGACGACUCGCCCCCCACAUACUUUGUUGAUCCAAUGACUCACUUUCACUGUCCUU
modifications: 2'-F modification; third strand may lack entry; pRNA-HER2apt-siMED1, p1; pRNA-HER2apt-siMED1, p2
H&E staining after therapeutic treatment
  histopathology of heart, liver, spleen, lung and kidney: no evidence of any apparent organ injury or disturbance
Entire treatment period, systemic administration
  mouse body weight: no significant reduction
